Assay results from article PMC11157272, “Fructose-1-kinase has pleiotropic roles in Escherichia coli” (The Journal of Biological Chemistry, 2023).

What was measured:
Cra (FruR), WT = Cra (FruR), WT (Escherichia coli (gene from strain …, UniProt P0ACP1 1-334)); assay: BLI; 100 nM Cra; BLI: 50 mM Hepes, 100 mM KCl, 0.1 mM EDTA, 10 mM MgCl2, 0.3 mM DTT, 0.1 mg/mL BSA, pH 7.0, about room temperature; concentrations as dimer; conditions: protein: recombinant; tags: none; chain copies: 2; label: biotin
[1] = target: the molecule itself; assay: atomic force microscopy; single-protein samples (FruK+DNA, Cra+DNA) in 50 mM Hepes, 100 mM KCl, 0.1 mM EDTA, 10 mM MgCl2, 0.3 mM DTT, pH 7.0, 60 min at room temperature, deposited on functionalised mica; molecular volumes converted to molecular weights
[2] = target: fructose-1-kinase (FruK), untagged, expressed from pET-3a and purified (E. coli), P0AEW9; assay: as above
[3] = target: T1, His-tagged Cra (pET3a-Cra-C-His) for biolayer interferometry (E. coli), P0ACP1; assay: BLI; equilibrium BLI (Octet RED96): biotinylated operator DNA on streptavidin tips, dipped into pre-equilibrated 2.5 nM Cra dimer plus varied FruK; 50 mM Hepes, 0.1 M KCl, 0.1 mM EDTA, 10 mM MgCl2, pH 7.0, 0.3 mM DTT, 0.1 mg/mL BSA; room temperature; global fit to Equation 2 with n assumed 1
T1 chain: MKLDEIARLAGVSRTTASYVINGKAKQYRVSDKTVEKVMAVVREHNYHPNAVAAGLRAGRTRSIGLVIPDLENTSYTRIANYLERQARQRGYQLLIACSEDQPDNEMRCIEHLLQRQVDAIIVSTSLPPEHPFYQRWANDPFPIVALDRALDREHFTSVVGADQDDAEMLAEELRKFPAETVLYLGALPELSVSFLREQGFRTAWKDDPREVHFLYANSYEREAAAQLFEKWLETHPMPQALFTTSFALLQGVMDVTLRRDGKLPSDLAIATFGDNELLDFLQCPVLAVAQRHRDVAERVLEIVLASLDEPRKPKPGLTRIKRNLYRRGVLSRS

[4] = target: T2, catabolite repressor activator protein (WT Cra), untagged (E. coli), P0ACP1; assay: as above
T2 chain: T1 chain

[5] = target: T2, catabolite repressor activator protein …; assay: atomic force microscopy; Cra, FruK and 331 bp fruBKA promoter DNA mixed (20 nM Cra/20 nM FruK and 20 nM Cra/10 nM FruK), 50 mM Hepes, 100 mM KCl, 0.1 mM EDTA, 10 mM MgCl2, 0.3 mM DTT, pH 7.0, 60 min at room temperature, deposited on functionalised mica; DNA-bound and DNA-free particles; volumes converted to molecular weights and clustered

B1: fruBproximal (dsDNA)
DNA 1: ATGCATGTTGTGTGGTTCTTGAAACGTTTCAGCTCACACAGGTCC
DNA 2: GGACCTGTGTGAGCTGAAACGTTTCAAGAACCACACAACATGCAT
modifications: 5' biotin
**Q.** Does B1 bind (Cra (FruR), WT)?
**A.** binds

B2: catabolite repressor activator protein (WT Cra), untagged (natural protein, E. coli, UniProt P0ACP1 1-334, looked up)
chain: T1 chain
notes: also called FruR; source: E. coli 3.300, constitutively over-expressed from pHG165a, in lysate; E. coli BLIM, constitutively expressed, purified (ammonium sulfate precipitation, phosphocellulose)
**Q.** For B2, which “stoichiometry N” value [1] is on record?
**A.** 2

B3: fructose-1-kinase (FruK), untagged, expressed from pET-3a and purified, P0AEW9 1-312 (enzyme)
chain: MSRRVATITLNPAYDLVGFCPEIERGEVNLVKTTGLHAAGKGINVAKVLKDLGIDVTVGGFLGKDNQDGFQQLFSELGIANRFQVVQGRTRINVKLTEKDGEVTDFNFSGFEVTPADWERFVTDSLSWLGQFDMVCVSGSLPSGVSPEAFTDWMTRLRSQCPCIIFDSSREALVAGLKAAPWLVKPNRRELEIWAGRKLPEMKDVIEAAHALREQGIAHVVISLGAEGALWVNASGEWIAKPPSVDVVSTVGAGDSMVGGLIYGLLMRESSEHTLRLATAVAALAVSQSNVGITDRPQLAAMMARVDLQPFN
modifications: not checked
**Q.** Which stoichiometry N [2] does the source give for B3 here?
**A.** 2

**Q.** And the Kd [3]?
**A.** 1.6 nM

**Q.** And the Kd [4]?
**A.** 2 nM

**Q.** And the stoichiometry N (FruK homodimer per Cra homodimer) [5]?
**A.** 1

B4: His-tagged FruK (pET3a) for biolayer interferometry, P0AEW9 1-312 (enzyme)
chain: B3 chain
modifications: not checked
**Q.** How did the Kd [4] turn out when B4 was run?
**A.** 2.1 nM
